Assay results taken from paper PMC3762362.

How the values were obtained:
[1] = target: VVCA-A462C-AF594 (N-WASP 393–505, C431A, A462C, AlexaFluor 594 labeled) (human) (UniProt O00401); assay: fluorescence polarisation; fluorescence anisotropy, direct binding of 20 nM VVCA-A462C-AF594 to bovine Arp2/3 complex; no actin; 10 min incubation
[2] = target: Endogenous bovine Arp2/3 complex (bovine (endogenous in calf thymus)) (UniProt A7MB62); assay: fluorescence polarisation; fluorescence anisotropy competition: VVCA-A462C-AF594 reporter with 200 nM bovine Arp2/3 complex and increasing unlabeled GST-VCA, GST-VVCA or GST-VCA-C*; fit to a competition-binding isotherm
[3] = target: SNAP-tagged S. cerevisiae Arp2/3 complex labeled with Dy649 (Arp2/3-SNAP649) (S. cerevisiae) (UniProt P32381); assay: colocalization single molecule spectroscopy (CoSMoS, TIRF); biotinylated AF488-actin filaments tethered to the slide; 5 nM Arp2/3-SNAP649, 5 nM Cy3-diVCA construct and 1 μM actin (10% AF488 labeled) in solution; TIRF buffer; time resolution 0.15 s
[4] = target: SNAP-tagged S. cerevisiae Arp2/3 complex labeled with Dy649 (Arp2/3-SNAP649) (S. cerevisiae) (UniProt P32381)
[5] = target: SNAP-tagged S. cerevisiae Arp2/3 complex labeled with Dy649 (Arp2/3-SNAP649) (S. cerevisiae) (UniProt P32381); remark: listed apart in the source
[6] = target: SNAP-tagged S. cerevisiae Arp2/3 complex labeled with Dy649 and biotin (Arp2/3-SNAP649-biotin) (S. cerevisiae) (UniProt P32381); assay: colocalization single molecule spectroscopy (CoSMoS, TIRF); Arp2/3-SNAP649-biotin tethered to the slide through streptavidin; 0.1–2 nM Cy3-diVCA construct and 1 μM actin (10% AF488 labeled) in solution; periods with no filament colocalized; TIRF buffer (50 mM KCl, 1 mM MgCl2, 1 mM EGTA, 10 mM imidazole pH 7.2)
[7] = target: Surface-tethered actin filaments (10% AF488 labeled, 1% biotinylated) (rabbit) (UniProt P68135); assay: colocalization single molecule spectroscopy (CoSMoS, TIRF); biotinylated AF488-actin filaments tethered to the slide; 5 nM Arp2/3-SNAP649, 5 nM Cy3-diVCA construct and 1 μM actin (10% AF488 labeled) in solution; TIRF buffer; time resolution 0.15 s
[8] = target: Surface-tethered actin filaments (10% AF488 labeled, 1% biotinylated) (rabbit) (UniProt P68135); assay: colocalization single molecule spectroscopy (CoSMoS, TIRF); biotinylated AF488-actin filaments tethered to the slide; Arp2/3-SNAP649 and 1 μM actin in solution, no VCA; TIRF buffer; rate constant per filament subunit
[9] = target: VCA-AF594 (N-WASP VCA 430–505, S430C, C431A, AlexaFluor 594 labeled) (human) (UniProt O00401); assay: fluorescence polarisation; fluorescence anisotropy of 10 nM VCA-AF594 with increasing non-polymerizable Drosophila 5C actin or yeast Arp2/3 complex; single site binding isotherm
Chain of VCA-AF594 (N-WASP VCA 430–505, S430C, C431A, AlexaFluor 594 labeled) (human) (O00401 430-505 S430C/C431A): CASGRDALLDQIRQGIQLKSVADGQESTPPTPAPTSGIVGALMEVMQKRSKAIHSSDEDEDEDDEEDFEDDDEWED

Chain of Cy3-diVCA wild-type (N-WASP VCA covalently dimerized with a Cy3 bis-maleimide) (O00401 other isoform, or with tags, fused parts or gaps): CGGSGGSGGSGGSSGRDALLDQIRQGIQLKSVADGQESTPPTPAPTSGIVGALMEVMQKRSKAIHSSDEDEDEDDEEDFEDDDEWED
Chain of Cy3-diVCA-A* (Δ486–488) (O00401 other isoform, or with tags, fused parts or gaps mutant): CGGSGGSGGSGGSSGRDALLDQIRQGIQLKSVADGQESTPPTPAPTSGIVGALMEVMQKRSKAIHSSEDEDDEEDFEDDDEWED
Chain of VVCA-A462C-AF594 (N-WASP 393–505, C431A, A462C, AlexaFluor 594 labeled) (human) (O00401 393-505 C431A/A462C): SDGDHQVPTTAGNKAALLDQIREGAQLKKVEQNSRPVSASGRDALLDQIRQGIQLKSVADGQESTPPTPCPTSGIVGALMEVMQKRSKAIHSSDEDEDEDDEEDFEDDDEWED

Substance	fAV, fraction of Arp2/3 complexes that bind filament sides coincident with diVCA [3]	kV*, rate constant for diVCA release from the nascent branch (filament-bound Arp2/3 complex) [3]	τV*, mean lifetime of diVCA on nascent branches (filament-bound Arp2/3 complex) [3]	fold stimulation of Arp2/3 complex-dependent nucleation in bulk pyrene-actin assays (barbed ends at the midpoint; 25 nM diVCA construct, 10 nM Arp2/3-SNAP) [4]	kB, second order rate constant for branch formation (per mother filament subunit), single-molecule TIRF [5]	kon [6]	τV1, first characteristic lifetime of diVCA on isolated Arp2/3 complexes [6]	τV2, second characteristic lifetime of diVCA on isolated Arp2/3 complexes [6]	also measured
Endogenous bovine Arp2/3 complex (from UniProt A7MB62 1-394; P61157 1-418)									Kd [1]: 0.15 µM
GST-VCA-C* (GST fusion of N-WASP VCA with the C* mutation) (from UniProt O00401 432-505) (domain or fragment)									fold weaker affinity than GST-VCA [2]: 4 fold
Cy3-diVCA wild-type (N-WASP VCA covalently dimerized with a Cy3 bis-maleimide) (from UniProt O00401 432-505) (domain or fragment)	0.83	0.04 s⁻¹	0.7 s	2 fold	160 M⁻¹ s⁻¹	1.6e+08 M⁻¹ s⁻¹	8 s	61 s	Kd [6]: < 0.002 µM; percent of tethered Arp2/3 complexes observed to bind diVCA [6]: > 80%
Cy3-diVCA-C* (I467A) (from UniProt O00401 432-505) (domain or fragment)	0.59	0.05 s⁻¹	0.37 s	6 fold	200 M⁻¹ s⁻¹	6e+07 M⁻¹ s⁻¹	2.4 s	14 s	
Cy3-diVCA-V* (D435S/A436D) (from UniProt O00401 432-505) (domain or fragment)	0.7	0.08 s⁻¹	0.54 s	10 fold	320 M⁻¹ s⁻¹	7e+07 M⁻¹ s⁻¹	3.6 s	56 s	
Cy3-diVCA-A* (Δ486–488) (from UniProt O00401 432-505) (domain or fragment)	0.7	0.022 s⁻¹	0.7 s	1.4 fold	100 M⁻¹ s⁻¹	1.6e+08 M⁻¹ s⁻¹	40 s	250 s	
SNAP-tagged S. cerevisiae Arp2/3 complex labeled with Dy649 (Arp2/3-SNAP649) (from UniProt P32381 1-391; P47117 1-449; Q05933 1-178)									kA+ (binding to filament sides, per filament subunit) with diVCA A* present [7]: 8000 M⁻¹ s⁻¹; kA+ (binding to filament sides, per filament subunit) with diVCA C* present [7]: 20000 M⁻¹ s⁻¹; kA+ (binding to filament sides, per filament subunit) with diVCA V* present [7]: 13000 M⁻¹ s⁻¹; kA+ (binding to filament sides, per filament subunit) with diVCA w.t. present [7]: 21000 M⁻¹ s⁻¹; kon [8]: 20000 M⁻¹ s⁻¹
S. cerevisiae Arp2/3 complex purified from commercial baker's yeast (from UniProt P32381 1-391; P47117 1-449; Q05933 1-178)									Kd [9]: 0.065 µM
